From patent EP0959899A1

Experiments:
[1] = target: human CD2 (CD2 antigen, entire CD2 molecule) (human) (UniProt P06729); test: flow cytometry, two colour staining of PBMC with biotinylated LO-CD2a and Leu-5bPE (Figure 1)
[2] = target: human CD2 (CD2 antigen, entire CD2 molecule) (human) (UniProt P06729); test: flow cytometry, two colour staining of human PBMC (data not shown)
[3] = target: human CD2 (CD2 antigen, entire CD2 molecule) (human) (UniProt P06729); test: flow cytometry on PBMC cultured with 500 ng/ml LO-CD2a, bound antibody detected with MARK-3-FITC (Figure 5a)

UniProt P06729, sequence (P06729 25-351): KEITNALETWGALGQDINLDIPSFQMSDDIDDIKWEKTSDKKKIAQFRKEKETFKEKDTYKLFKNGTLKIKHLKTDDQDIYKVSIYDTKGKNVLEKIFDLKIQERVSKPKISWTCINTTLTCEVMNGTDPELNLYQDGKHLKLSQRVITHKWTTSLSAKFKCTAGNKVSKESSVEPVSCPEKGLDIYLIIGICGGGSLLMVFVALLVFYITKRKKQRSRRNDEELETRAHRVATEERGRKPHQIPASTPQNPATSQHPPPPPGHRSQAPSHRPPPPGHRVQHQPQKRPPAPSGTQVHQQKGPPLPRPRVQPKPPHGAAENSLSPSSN

% gated cells in the upper right (double positive) quadrant [1] [% gated]	% total cells in the upper right (double positive) quadrant [1] [% total]	percent of the population marked by T11 that is recognized [2] [%]	percent of cells labelled by MARK-3 (bound LO-CD2a) at day 6 of culture [3] [%]	Substance
66	17			Leu-5b, mouse anti-human-CD2 monoclonal antibody (Becton Dickinson)
66	17	90	50	LO-CD2a rat (IgG2b-Kappa) anti-CD2 monoclonal antibody, produced by the cell line ATCC HB 11423
